# In patent publication US7364741B1, “Peptides of human Papilloma virus for use in human T cell response inducing compositions” (priority 1992, dated 2008):
# Where two headings read alike, the source gives them in different places.
# How the values were obtained:
# HLA-A11.2 = test: Immunochemical peptide-MHC binding assay, purified HLA-A11.2, radiolabeled probe […]; design: species or system human; conditions: for binding ratio to standard: IC50 of standard divided by IC50 of tested peptide, cysteines synthesized as alanine
# Excerpt: (§1) The method utilizes purified class I molecules and radiolabeled synthetic probes based on consensus peptides. Competitor peptides tested for their binding to the class I molecules compete for this binding with the radiolabeled consensus peptides. The HLA-A1, A2.1, A3.2, A11.2, and A24 molecules were isolated from the following cell lines, respectively: the EBV (Eppstein Barr Virus) transformed cell line Steinlin, the EBV transformed cell line JY, the EBV transformed cell line GM3107, the cell line BVR and the EBV transformed cell line KT3. After large scale culture, cells were lysed in NP40 (Fluka Biochemika, Buchs, Switzerland) and the lysate was passed over two pre-columns of inactivated sepharose CL 4B and Prot A Sepharose. Class I molecules were then purified from the cell lysate by affinity chromatography using Prot A Sepharose beads conjugated with B2.23.2 (anti-HLA-B and HLA-C) and anti-human HLA. The lysate was first depleted of B and C molecules by repeated passage over the B2.23.2 column.
# (§2) After two days at 23° C. the percent of MHC-bound radioactivity was measured by size exclusion chromatography on a TSK2000 gel filtration as described by Sette et al. (1992).
# (§3) Probe peptides were iodinated by using the Chloramine T method described by Buus et al. (1987). The sequences of the probe peptides used for the aforementioned HLA molecules were […] (SEQ ID NO:76) for A1, […] (SEQ ID NO:77) for A2.1, […] (SEQ ID NO:78) for A3.2, […] (SEQ ID NO:79) for A11.2, and […] (SEQ ID NO:80) for A24.
# (§4) Each competitor peptide was tested in two to four completely independent experiments. Since cysteine containing peptides are susceptible to (air) oxidation during synthesis and handling, these peptides were synthesized with an alanine instead of a cysteine.
# HLA-A2.1 = biological target: T1, HLA-A2.1 (Homo sapiens, UniProt P04439, D140Y/D185E/D98H/E176V/E277Q/G131W/G231S/I119V/I121R/I166T/I218V/L300P/L318F/N151K/N90K/P208A/P217A/Q86G/Q94H/R138H/R169H/T345S); assay type: cell-based
# T1 construct: endogenous in cells; host or cells: 174CEM.T2
# Procedure: Of all peptides a dilution of 1 mg/ml in 0.9% NaCl was made.
# 174CEM.T2 cells were cultured in Iscovel's modified Dulbecco's medium (Biochrom KG Seromed Berlin, Germany: F0465) supplemented with 100 IU/ml penicillin (Biocades Pharma, Leiderdorp, The Netherlands), 100 μg/ml kanamycin (Sigma St. Louis, USA:K-0254), 2 mM glutamine (ICN Biomedicals Inc. Costa Mesa, Calif., USA:15-801-55) and 10% fetal calf serum (FCS, Hyclone Laboratories Inc. Logan, Utah, USA:A-1115-L). Cells were cultured at a density of 2.5×10^5/ml during 3 days at 37° C., 5% CO2 in humified air.
# 174CEM.T2 cells were washed twice in culture medium without FCS and put in serum-free culture medium to a density of 2×10^6 cells/ml. Of this suspension 40 μl was put into a V bottomed 96 well plate (Greiner GmbH, Frickenhausen, Germany: 651101) together with 10 μl of the individual peptide dilutions (of 1 mg/ml). The end concentration is 200 μg/ml peptide with 8×10^4 174CEM.T2 cells. This solution was gently agitated for 3 minutes after which an incubation time of 16 hours at 37° C., 5% CO2 in humified air took place. Then cells were washed once with 100 μl 0.9% NaCl, 0.5% bovine serum albumin (Sigma St. Louis, USA: A-7409), 0.02% NaN3 (Merck Darmstadt, Germany:822335). After a centrifuge round of 1200 rpm the pellet was resuspended in 50 μl of saturating amounts of HLA-A2.1 specific mouse monoclonal antibody BB7.2 for 30 minutes at 4° C. Then cells were washed twice and incubated for 30 minutes with F(ab)2 fragments of goat anti-mouse IgG that had been conjugated with […] (Tago Inc Burlingame, Calif., USA: 4350) in a dilution of 1:40 and a total volume of 25 μl.
# After the last incubation, cells were washed twice and fluorescence was measured at 488 nanometer on a FACScan flow-cytometer (Becton Dickinson, Franklin Lakes, N.J., USA).
# The 174CEM.T2 cell line expresses “empty” and unstable HLA-A2.1 molecules that can be stabilized when a peptide is binding to the peptide presenting groove of these molecules. […] This leads to an increase in cell surface expression of the HLA-A2.1 molecule.
# With background fluorescence level (without adding peptides) set on a Fluorescence Index level of 0, binding of a peptide was regarded positive when the level of fluorescence was ≧0.5.
# HLA-A3.2 = biological target: T2, HLA-A3.2 (Homo sapiens, UniProt P04439); assay type: binding
# T2 construct: endogenous in cells; host or cells: EBV transformed cell line GM3107 (protein purified from NP40 lysate)
# Excerpt: as §1, §2, §3, §4
# [1] = HPV18 peptides, 200 μg/ml peptide, 16 hours, 174CEM.T2 cells
# [2] = HPV18 peptides, 200 μg/ml peptide, 16 hours, 174CEM.T2 cells, background set on 0, binding positive when ≧0.5
# [3] = HLA-A3.2, IC50 of standard divided by IC50 of tested peptide, cysteines synthesized as alanine
# [4] = HPV16 peptides, 200 μg/ml peptide, 16 hours, 174CEM.T2 cells
# [5] = HPV16 peptides, 200 μg/ml peptide, 16 hours, 174CEM.T2 cells, background set on 0, binding positive when ≧0.5
# T2 sequence (P04439 25-365): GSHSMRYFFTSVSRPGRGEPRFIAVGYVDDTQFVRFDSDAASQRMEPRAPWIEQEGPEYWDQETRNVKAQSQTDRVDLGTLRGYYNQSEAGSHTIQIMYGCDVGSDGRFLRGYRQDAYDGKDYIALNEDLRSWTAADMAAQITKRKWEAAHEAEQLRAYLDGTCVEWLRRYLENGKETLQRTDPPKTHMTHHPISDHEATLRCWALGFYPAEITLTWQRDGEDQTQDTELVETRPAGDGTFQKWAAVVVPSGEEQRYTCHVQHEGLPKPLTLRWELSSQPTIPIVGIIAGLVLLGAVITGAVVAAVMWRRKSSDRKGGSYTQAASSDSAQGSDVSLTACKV
# T2 sequence (P61769 21-119, further chain): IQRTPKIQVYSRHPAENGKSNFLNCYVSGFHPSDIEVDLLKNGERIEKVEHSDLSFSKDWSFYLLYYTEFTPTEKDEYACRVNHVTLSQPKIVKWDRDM
compound,measurement,setting,value
VCPICSQKP [residues 90-98 of HPV16 protein E7],binding ratio to standard,HLA-A11.2,0.0012
"SLQDIEITC [HPV18 peptide 2, residues 24-32 of HPV18 protein E6]",MF (mean HLA-A2.1 fluorescence),HLA-A2.1; [1],243.9
same,FI (Fluorescence Index),HLA-A2.1; [2],0.7
YNIVTFCCK [residues 52-60 of HPV16 protein E7],binding ratio to standard,HLA-A3.2; [3],0.0067
same,binding ratio to standard,HLA-A11.2,0.0060
AMFQDPQER [residues 7-15 of HPV16 protein E6],binding ratio to standard,HLA-A11.2,0.8400
RHYCYSLYG [residues 84-92 of HPV16 protein E6],binding ratio to standard,HLA-A3.2; [3],0.0036
"KTVLELTEV [HPV18 peptide 5, residues 36-44 of HPV18 protein E6]",MF (mean HLA-A2.1 fluorescence),HLA-A2.1; [1],467.5
same,FI (Fluorescence Index),HLA-A2.1; [2],2.3
"QLFLNTLSF [HPV18 peptide 12, residues 88-96 of HPV18 protein E7]",MF (mean HLA-A2.1 fluorescence),HLA-A2.1; [1],258.2
same,FI (Fluorescence Index),HLA-A2.1; [2],0.8
LLMGTLGIV [HPV16 peptide 16],FI (Fluorescence Index),HLA-A2.1,0.8
same,MF (mean HLA-A2.1 fluorescence),HLA-A2.1,118.8
"FQQLFLNTL [HPV18 peptide 11, residues 86-94 of HPV18 protein E7]",MF (mean HLA-A2.1 fluorescence),HLA-A2.1; [1],244.5
same,FI (Fluorescence Index),HLA-A2.1; [2],0.8
"RLCVQSTHV [HPV16 peptide 14, residues 66-74 of HPV16 protein E7]",MF (mean HLA-A2.1 fluorescence),HLA-A2.1; [4],250.0
same,FI (Fluorescence Index),HLA-A2.1; [5],2.8
"TLEDLLMGT [HPV16 peptide 15, residues 78-86 of HPV16 protein E7]",MF (mean HLA-A2.1 fluorescence),HLA-A2.1; [4],182.8
same,FI (Fluorescence Index),HLA-A2.1; [5],1.8
"QLCTELQTT [HPV16 peptide 2, residues 21-29 of HPV16 protein E6]",MF (mean HLA-A2.1 fluorescence),HLA-A2.1; [4],211.9
same,FI (Fluorescence Index),HLA-A2.1; [5],2.2
CC[C@H](C)[C@H](NC(=O)CNC(=O)[C@H](CC(C)C)NC(=O)[C@@H](N)[C@@H](C)O)C(=O)N[C@H](C(=O)N[C@@H](CS)C(=O)N1CCC[C@H]1C(=O)N[C@H](C(=O)N[C@@H](CS)C(=O)O)[C@@H](C)CC)C(C)C [HPV16 peptide 18],MF (mean HLA-A2.1 fluorescence),HLA-A2.1; [4],227.8
same,FI (Fluorescence Index),HLA-A2.1; [5],2.5
AVDLYHFLK [reference compound],IC50,"HLA-A11.2; read-out: 50% inhibition dose for the probe, unlabeled probe peptide",9 nM
"DTLEKLTNT [HPV18 peptide 8, residues 88-96 of HPV18 protein E6]",MF (mean HLA-A2.1 fluorescence),HLA-A2.1; [1],238.2
same,FI (Fluorescence Index),HLA-A2.1; [2],0.7
"PLCDLLIRC [HPV16 peptide 10, residues 102-110 of HPV16 protein E6]",MF (mean HLA-A2.1 fluorescence),HLA-A2.1; [4],204.8
same,FI (Fluorescence Index),HLA-A2.1; [5],2.1
"LTNTGLYNL [HPV18 peptide 9, residues 93-101 of HPV18 protein E6]",MF (mean HLA-A2.1 fluorescence),HLA-A2.1; [1],352.5
same,FI (Fluorescence Index),HLA-A2.1; [2],1.5
HLDKKQRFH [residues 125-133 of HPV16 protein E6],binding ratio to standard,HLA-A3.2; [3],0.4400
SLYGTTLEQ [residues 89-97 of HPV16 protein E6],binding ratio to standard,HLA-A3.2; [3],0.0080
"KLPDLCTEL [HPV18 peptide 1, residues 13-21 of HPV18 protein E6]",MF (mean HLA-A2.1 fluorescence),HLA-A2.1; [1],439.3
same,FI (Fluorescence Index),HLA-A2.1; [2],2.1
TLQDIVLHL [HPV18 peptide 10],FI (Fluorescence Index),HLA-A2.1,2.7
same,MF (mean HLA-A2.1 fluorescence),HLA-A2.1,519.6
QQYNKPLCD [residues 97-105 of HPV16 protein E6],binding ratio to standard,HLA-A3.2; [3],0.0045
"GTLGIVCPI [HPV16 peptide 17, residues 85-93 of HPV16 protein E7]",MF (mean HLA-A2.1 fluorescence),HLA-A2.1; [4],216.1
same,FI (Fluorescence Index),HLA-A2.1; [5],2.3
"ELQTTIHDI [HPV16 peptide 4, residues 25-33 of HPV16 protein E6]",MF (mean HLA-A2.1 fluorescence),HLA-A2.1; [4],108.0
same,FI (Fluorescence Index),HLA-A2.1; [5],0.6
KCDSTLRLC [residues 60-68 of HPV16 protein E7],binding ratio to standard,HLA-A3.2; [3],0.0012
"YMLDLQPET [HPV16 peptide 12, residues 11-19 of HPV16 protein E7]",MF (mean HLA-A2.1 fluorescence),HLA-A2.1; [4],283.9
same,FI (Fluorescence Index),HLA-A2.1; [5],3.3
"LFLNTLSFV [HPV18 peptide 13, residues 89-97 of HPV18 protein E7]",MF (mean HLA-A2.1 fluorescence),HLA-A2.1; [1],360.3
same,FI (Fluorescence Index),HLA-A2.1; [2],1.6
"TIHDIILEC [HPV16 peptide 6, residues 29-37 of HPV16 protein E6]",MF (mean HLA-A2.1 fluorescence),HLA-A2.1; [4],184.5
same,FI (Fluorescence Index),HLA-A2.1; [5],1.8
ELTEVFEFA [HPV18 peptide 6],FI (Fluorescence Index),HLA-A2.1,1.1
same,MF (mean HLA-A2.1 fluorescence),HLA-A2.1,289.0
TTLEQQYNK [residues 93-101 of HPV16 protein E6],binding ratio to standard,HLA-A3.2; [3],0.0780
"FAFKDLFVV [HPV18 peptide 7, residues 47-55 of HPV18 protein E6]",MF (mean HLA-A2.1 fluorescence),HLA-A2.1; [1],462.9
same,FI (Fluorescence Index),HLA-A2.1; [2],2.3
"EITCVYCKT [HPV18 peptide 4, residues 29-37 of HPV18 protein E6]",MF (mean HLA-A2.1 fluorescence),HLA-A2.1; [1],206.0
same,FI (Fluorescence Index),HLA-A2.1; [2],0.5
"LSFVCPWCA [HPV18 peptide 14, residues 94-102 of HPV18 protein E7]",MF (mean HLA-A2.1 fluorescence),HLA-A2.1; [1],262.0
same,FI (Fluorescence Index),HLA-A2.1; [2],0.9
"LCTELQTTI [HPV16 peptide 3, residues 22-30 of HPV16 protein E6]",MF (mean HLA-A2.1 fluorescence),HLA-A2.1; [4],113.6
same,FI (Fluorescence Index),HLA-A2.1; [5],0.7
KFYSKISEY [residues 75-83 of HPV16 protein E6],binding ratio to standard,HLA-A3.2,0.0100
"IHDIILECV [HPV16 peptide 7, residues 30-38 of HPV16 protein E6]",MF (mean HLA-A2.1 fluorescence),HLA-A2.1; [4],150.7
same,FI (Fluorescence Index),HLA-A2.1; [5],1.3
TGRCMSCCR [residues 140-148 of HPV16 protein E6],binding ratio to standard,HLA-A11.2,0.0012
CCRSSRTRR [residues 146-154 of HPV16 protein E6],binding ratio to standard,HLA-A3.2; [3],0.0020
